Test results published in paper PMC8844851 (The Journal of Biological Chemistry, 2022).

Target: T1, C-terminally FLAG-tagged Cdc123 (S. cerevisiae, UniProt Q05791 1-360)
T1 construct: Cdc123 of S. cerevisiae; also called Cdc123^FLAG; source: S. cerevisiae, in lysate; not shown: FLAG, C-terminal, kept
T1 sequence (looked up): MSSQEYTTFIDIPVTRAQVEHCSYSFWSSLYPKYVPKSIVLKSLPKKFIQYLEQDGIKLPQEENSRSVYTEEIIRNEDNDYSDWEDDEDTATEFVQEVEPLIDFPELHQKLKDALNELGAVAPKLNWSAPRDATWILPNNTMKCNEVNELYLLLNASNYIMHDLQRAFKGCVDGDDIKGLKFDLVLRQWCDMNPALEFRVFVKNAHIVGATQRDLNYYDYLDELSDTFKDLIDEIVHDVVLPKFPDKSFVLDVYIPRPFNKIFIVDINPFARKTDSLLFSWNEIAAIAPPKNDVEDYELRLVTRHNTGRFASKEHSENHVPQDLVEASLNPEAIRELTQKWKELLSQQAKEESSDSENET
Test: co-IP; Cdc123-FLAG precipitated with anti-FLAG beads from yeast extract, 4 °C, 2 h; subunit signal in IP normalised to whole cell extract, Gcd11 set to 100% (n = 3); also SUI2/SUI2 against sui2Δ/SUI2 diploid strains (n = 4)
Settings: partners not purified

B1: yeast eIF2γ (Gcd11) (natural protein, UniProt P32481 1-527, looked up)
chain: MSDLQDQEPSIIINGNLEPVGEPDIVEETEVVAQETQETQDADKPKKKVAFTGLEEDGETEEEKRKREFEEGGGLPEQPLNPDFSKLNPLSAEIINRQATINIGTIGHVAHGKSTVVRAISGVQTVRFKDELERNITIKLGYANAKIYKCQEPTCPEPDCYRSFKSDKEISPKCQRPGCPGRYKLVRHVSFVDCPGHDILMSTMLSGAAVMDAALLLIAGNESCPQPQTSEHLAAIEIMKLKHVIILQNKVDLMREESALEHQKSILKFIRGTIADGAPIVPISAQLKYNIDAVNEFIVKTIPVPPRDFMISPRLIVIRSFDVNKPGAEIEDLKGGVAGGSILNGVFKLGDEIEIRPGIVTKDDKGKIQCKPIFSNIVSLFAEQNDLKFAVPGGLIGVGTKVDPTLCRADRLVGQVVGAKGHLPNIYTDIEINYFLLRRLLGVKTDGQKQAKVRKLEPNEVLMVNIGSTATGARVVAVKADMARLQLTSPACTEINEKIALSRRIEKHWRLIGWATIKKGTTLEPIA
notes: Gcd11, eIF2 gamma subunit of S. cerevisiae, untagged endogenous protein detected with antiserum; source: endogenous, S. cerevisiae (W303 derivatives) lysate
Question: With B1 as the binder, how does the “fold increase of coprecipitation in the sui2Δ/SUI2 strain over SUI2/SUI2” value read?
Answer: 1.3 fold
